Numbering of substitutions follows the chain as printed. Numbers in names are those of the source. Like-named read-outs stand apart in the source and are kept apart here. Marks after values point to notes of the source that are not given here.
B1: F34L S405C: optimized Thermoplasma acidophilum aldehyde dehydrogenase with the mutations F34L and S405C (protein)
chain: MDTKLYIDGQWVNSSSGKTVDKYSPVTGQVIGRLEAATRDDVDRAIDAAEDAFWAWNDLGSVERSKIIYRAKELIEKNRAELENIIMEENGKPVKEAKEEVDGVIDQIQYYAEWARKLNGEVVEGTSSHRKIFQYKVPYGIVVALTPWNFPAGMVARKLAPALLTGNTVVLKPSSDTPGSAEWIVRKFVEAGVPKGVLNFITGRGSEIGDYIVEHKKVNLITMTGSTATGQRIMQKASANMAKLILELGGKAPFMVWKDADMDNALKTLLWAKYWNAGQSCIAAERLYVHEDIYDTFMSRFVELSRKLALGDPKNADMGPLINKGALQATSEIVEEAKESGAKILFGGSQPSLSGPYRNGYFFLPTIIGNADQKSKIFQEEIFAPVIGARKISSVEEMYDLANDCKYGLASYLFTKDPNIIFEASERIRFGELYVNMPGPEASQGYHTGFRMTGQAGEGSKYGISEYLKLKNIYVDYSGKPLHINTVRDDLFQSGRPVLGSSHHHHHH
modifications: TaALDH-F34L-S405C-Chis
B2: wildtype (wt): Aldehyde Dehydrogenase ALDH (EC 1.2.1.3), Thermoplasma acidophilum, Seq ID 08, wildtype, non-optimized enzyme (protein)
chain: B1 chain with L34F, C405S
modifications: Aldehyde Dehydrogenase (EC 1.2.1.3), Thermoplasma acidophilum, wildtype enzyme Protein sequence including C-terminal His-Tag
B3: F34L: optimized Thermoplasma acidophilum aldehyde dehydrogenase with the mutation of F34L (protein)
chain: B1 chain with C405S
modifications: taALDH-F34L-Chis
B4: F34M S405N: optimized Thermoplasma acidophilum aldehyde dehydrogenase with the mutations F34M and S405N (protein)
chain: B1 chain with L34M, C405N
modifications: TaALDH-F34M-S405N-Chis
B5: KDGA: 2-Keto-3-deoxygluconate aldolase KDGA (EC 4.1.2.14), Sulfolobus acidocaldaricus, Seq ID 06 (protein, listed as Sulfolobus acidocaldarius)
chain: MEIISPIITPFDKQGKVNVDALKTHAKNLLEKGIDAIFVNGTTGLGPALSKDEKRQNLNALYDVTHKLIFQVGSLNLNDVMELVKFSNEMDILGVSSHSPYYFPRLPEKFLAKYYEEIARISSHSLYIYNYPAATGYDIPPSILKSLPVKGIKDTNQDLAHSLEYKLNLPGVKVYNGSNTLIYYSLLSLDGVVASFTNFIPEVIVKQRDLIKQGKLDDALRLQELINRLADILRKYGSISAIYVLVNEFQGYDVGYPRPPIFPLTDEEALSLKREIEPLKRKIQELVH

How the values were obtained:
[1] = Screening of TaALDH variants, relative activity under standard conditions (2 mM NAD); format: biochemical; settings: for 2 mM NAD (mU/mL): 1 mM D-glyceraldehyde, 50° C., pH 7, lysate supernatant; for relative to wt: mU/mL values normalized to the wildtype control value
Description: (§1) Colonies of E. coli BL21 (DE3) containing Ta-ALDH library were transferred into 96-deepwell plates (Gainer BioOne) containing Zym5052 autoinduction medium (Protein Expression and Purification, 2005. 41(1): p. 207-234). Cultures were grown over night at 37° C., 1000 rpm. Cells were harvested by centrifugation at 5000 g at 2° C. for 2 min and lysed with B-Per® protein extraction reagent (Thermo Fisher Scentific, Rockford, USA). After incubation for 60 min at 50° C., insoluble cell debris and was removed by centrifugation at 5000 g at 20° C. for 30 min. Supernatants containing variants of TaALDH were tested for relative activity under standard conditions: 2 mM NAD, 1 mM D-glyceraldehyde in 50 mM HEPES (pH 7) at 50° C. After 20 min NADH formation was detected spectrophotometrically at 340 nm.
(§2) The values “relative to wt” are the mU/mL values normalized to the wildtype control value.

[2] = Cofactor acceptance of Ta-ALDH variants (10 mM NAD); format: biochemical; settings: for 10 mM NAD (mU/mL): 1 mM D-glyceraldehyde, 50° C., pH 7; for 10 mM NAD (mU/mL) / relative to wt: 10 mM NAD; for relative to wt: normalized to the wildtype control value; for 10 mM NAD /2 mM NAD: ratio of activity at 10 mM NAD to 2 mM NAD
Description: as §1
Change in cofactor acceptance of Ta-ALDH variants was tested under standard assay conditions but with 10 mM NAD. After 20 min NADH formation was detected and compared to relative activity.
as §2

[3] = Activity in solvents of Ta-ALDH variants (3 % isobutanol); format: biochemical; settings: for 3 % isobutanol, 2 mM NAD (mU/mL): 50° C., pH 7; for 3 % isobutanol, 2 mM NAD (mU/mL) / relative to wt: 3 % isobutanol, 2 mM NAD; for relative to wt: normalized to the wildtype control value; for Stab. rel to wt: stability in 3 % isobutanol relative to wildtype
Description: as §1
Activity in solvents of Ta-ALDH variants was tested under standard assay conditions containing additional solvent. After 20 min NADH formation was detected and compared to relative activity.
as §2

[4] = Determination of specific activity of purified TaALDH variants; format: biochemical; settings: purified enzyme, 1 mM D-Glyceraldehyde, 50° C., pH 7
Excerpt: The Ta-aldh gene was cloned in pCBR-Chis expression vector as described above. Mutations F34L, F34M, Y399C, S405C and S405N were inserted into Ta-aldh gene by Quickchange PCR as described above. For recombinant expression, E. coli BL21 (DE3) was transformed with pCBR-Ta-aldh-Chis, pCBR-Ta-aldh-f34I-s405c-Chis, pCBR-Ta-aldh-f34m-s405n-Chis or pCBR-Ta-aldh-f34m-y399c-s405n-Chis. Each of the four variants was produced using the following protocol:
Large amounts of a TaALDH-Variant were produced with fed-batch fermentation in a 40 L Biostat Cplus bioreactor (Sartorius Stedim, Goettingen, Germany). Defined media was supplemented with 30 μg/ml kanamycin. After inoculation cells were grown at 30° C. for 24 h and induced with 0.3 mM IPTG. Enzyme expression was performed at 30° C. for 3 h. One fermentation produced 300 g cells (wet weight). Cells were harvested and lysed with Basic-Z Cell Disruptor (Constant Systems, Northants, UK) in loading buffer (200 mM NaCl; 20 mM Imidazol; 2.5 mM MgCl2; 50 mM NaPi, pH 6.2). After heat treatment at 50° C. for 30 min, cell debris and protein aggregates were separated from soluble fraction by centrifugation at 30,000 g at 20° C. for 30 min (Sorvall RC6+, SS-34 rotor, Thermo Scientific).
Soluble fraction of His-tagged TaALDH-Variant was further purified by Ni-NTA chromatography using ÄKTA UPC-900 FPLC-system (GE Healthcare, Freiburg, Germany). Supernatant was loaded on HiTrap FF-column and washed with two column volumes of loading buffer. Highly purified and concentrated TaALDH was fractioned after elution in imidazole buffer (200 mM NaCl; 500 mM imidazol; 50 mM NaPi, pH 6.2). Buffer was changed to 20 mM (NH4)HCO3 with HiPrep 26/10 Desalting column and TaALDH was lyophilized with an Alpha 2-4 LD Plus freeze dryer (Martin Christ GmbH, Osterode am Harz, Germany).
TaALDH activity was determined spectrophotometrically at 50° C. by measuring the rate of cofactor reduction at 340 nm in flat bottom microtiter plates (Grainer BioOne) with a Fluorostar Omega Photometer (BMG Labtech GmbH, Ortenberg, Germany). One unit of activity was defined as reduction of 1 μmol of cofactor per minute.

[5] = KDGA activity in cleavage direction (HPLC); format: biochemical; settings: natural substrate
Description: (J. Mol. Catal. B-Enzym. 2009, 61, 30-35).
KDGA activity: KDGA activity was followed in cleavage direction at 50° C. Reaction mixture contained 50 mM HEPES (pH 7), 0.1 mM thiamine pyrophosphate, 2.5 mM MgCl2, 20 U PDC and 10 mM KDG. KDG cleavage was followed by HPLC as described below.
Sample volume was 10 μl in each case.

[6] = Enzyme half-life at 50° C.
[7] = cited from earlier work
[8] = Ethanol tolerance of enzymes (E50); format: biochemical; settings: 60° C.
[9] = Isobutanol tolerance of enzymes (I50); format: biochemical

Molecule	2 mM NAD (mU/mL) [1] [mU/mL]	relative to wt [1]	10 mM NAD (mU/mL) [2] [mU/mL]	relative to wt [2]	10 mM NAD /2 mM NAD [2]	3 % isobutanol, 2 mM NAD (mU/mL) [3] [mU/mL]	relative to wt [3]	Stab. rel to wt [3]	specific activity (U/mg) at 2 mM NAD [4] [U/mg]	Activity, 50° C. [5] [U/mg]	Half-life, 50° C. [6] [h]	T-Optimum ([7]; Table 1, value with literature reference)	T-Optimum ([7]; Table 2, value with literature reference)	E50: Ethanol concentration which causes loss of 50% activity [8]	I50: Isobutanol concentration which causes loss of 50% activity ([9]; 60° C., above solubility)	activity in a two-phase isobutanol/water system ([9]; two-phase system forms at product titers above 12% (v/v))
B1	15.23	5.3	46.83	3.9	0.7	8.17	5.1	1.0	1	–	–	–	–	–	–	–
B2	2.89	1.0	11.92	1.0	1	1.60	1.0	1.0	0.2	–	–	–	–	–	–	–
B3	9.09	3.1	31.72	2.7	0.8	4.08	2.6	0.8	–	–	–	–	–	–	–	–
B4	25.87	9.0	74.31	6.2	0.7	15.62	9.8	1.1	1.2	–	–	–	–	–	–	–
B5	–	–	–	–	–	–	–	–	–	4	>24	99^[1] 50 °C	99^[1] ° C.	15 (60° C.) % v/v	>12 (60° C.)^b % v/v	remains completely active
